Laboratory results: publication PMC4489804

Molecular target: DCP1-CFP (Arabidopsis thaliana) (UniProt Q9SJF3)
Assay: FRET or BRET; FRET acceptor photobleaching in transiently transfected Arabidopsis leaf epidermis cells; DCP1-CFP donor, YFP-gSPI or free YFP acceptor, 35S promoter; whole cells and stationary P-bodies measured

UniProt Q9SJF3, sequence (Q9SJF3 whole entry): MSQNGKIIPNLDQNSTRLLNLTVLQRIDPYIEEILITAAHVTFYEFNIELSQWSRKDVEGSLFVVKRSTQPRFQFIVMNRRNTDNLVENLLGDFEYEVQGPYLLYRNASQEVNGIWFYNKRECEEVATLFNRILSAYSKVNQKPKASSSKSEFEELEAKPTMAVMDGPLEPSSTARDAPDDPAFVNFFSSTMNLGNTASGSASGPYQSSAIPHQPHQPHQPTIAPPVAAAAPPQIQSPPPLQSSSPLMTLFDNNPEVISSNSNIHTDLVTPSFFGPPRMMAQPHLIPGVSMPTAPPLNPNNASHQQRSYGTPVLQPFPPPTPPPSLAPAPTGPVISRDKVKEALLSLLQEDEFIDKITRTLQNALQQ

Substance: YFP-tagged full-length genomic SPI, F4HZB2 1-3601
- FRET efficiency (FRETE), immobile P-bodies: 23%
- FRET efficiency (FRETE), whole cells: 27%
